Target: C-Intein_C-Cas9_v1 (Nostoc punctiforme | Streptococcus pyogenes) (UniProt Q99ZW2)

## N-Cas9_N-Intein_v1 (from UniProt Q99ZW2 1-573)
  percentage of indels at the endogenous Fus locus in Neuro-2a cells (T7 endonuclease I assay) after transfection of both moieties; wild-type SpCas9 gave 23.1%: 22.7%

From paper PMC4513872
